US20040180354A1 (MANNKIND, published 2004)

What was measured:
[1] = molecular target: T1, HLA-A2.1 (HLA-A*0201) on the surface of T2 cells (human); experiment: T2 cell HLA-A2.1 stabilisation, flow cytometry with FITC anti-HLA A2, A28
T1 construct: MHC class I molecule on T2 cells

[2] = molecular target: T1, HLA-A2.1 (HLA-A*0201) on the surface of …; experiment: HLA-A2 binding assay, FACS profiles (T2 cells)
[3] = molecular target: T1, HLA-A2.1 (HLA-A*0201) on the surface of …; experiment: T2 cell HLA-A*0201 stabilisation, flow cytometry
[4] = molecular target: T1, HLA-A2.1 (HLA-A*0201) on the surface of …; experiment: HLA-A2 binding assay, FACS profiles (T2 cells); the weaker of the two 9-mers

B1: SSX-2 41-49, KASEKIFYV (peptide)
peptide: KASEKIFYV
notes: also called 15
Q: Does B1 bind [1]?
A: binds

B2: tyrosinase207-215, FLPWHRLFL (peptide)
peptide: FLPWHRLFL
notes: Synthetic 9-mer from tyrosinase; also called Tyr 207-215
Q: Does B2 bind [2]?
A: binds

B3: PSMA663-671 (SEQ ID NO. 66) (peptide)
peptide: MMNDQLMFL
notes: Synthetic 9-mer from prostate specific membrane antigen
Q: Does B3 bind [3]?
A: binds

B4: tyrosinase208-216, LPWHRLFLL (peptide)
peptide: LPWHRLFLL
notes: Synthetic 9-mer from tyrosinase; also called Tyr 208-216
Q: Does B4 bind [4]?
A: binds
